The results in this text go back to patent US20030138946A1.

As usually defined, the Kd is the concentration at which binding is half-saturated.

For this assay, the target named is T1, soluble H-2 K^b (K^bsol): heterodimer of truncated K^b heavy chain and murine β-2 microglobulin, purified from Drosophila cells (murine), P01901.
T1 chain 1: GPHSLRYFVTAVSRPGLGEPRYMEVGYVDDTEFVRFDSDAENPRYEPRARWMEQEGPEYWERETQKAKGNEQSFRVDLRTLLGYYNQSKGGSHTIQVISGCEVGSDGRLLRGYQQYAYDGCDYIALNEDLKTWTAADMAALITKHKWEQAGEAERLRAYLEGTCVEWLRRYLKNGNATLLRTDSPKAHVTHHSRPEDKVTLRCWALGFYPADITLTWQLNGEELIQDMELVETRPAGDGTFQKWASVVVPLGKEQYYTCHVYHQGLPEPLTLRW
T1 chain 2: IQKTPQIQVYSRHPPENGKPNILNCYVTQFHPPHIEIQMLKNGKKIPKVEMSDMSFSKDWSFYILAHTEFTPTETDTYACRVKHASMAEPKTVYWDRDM

B1: OVA-10N (peptide)
chain: LESIINFEKL
modifications: not checked
B1 had a Kd of 280 nM.

B2: OVA-8 (ovalbumin 257-264) (peptide)
chain: SIINFEKL
modifications: not checked
Consider B2, for which the Kd is 4.1 nM.

B3: OVA-10C (peptide)
chain: SIINFEKLTE
modifications: not checked
On to B3, for which the Kd came out at 14 nM.

B4: OVA-9C (peptide)
chain: SIINFEKLT
modifications: not checked
B4 yielded a Kd of 11 nM.
